According to US20050031613A1:

Columns and labels:
[1] = target: soluble hFcγRIIIa(V) (human) (UniProt P08637); assay: SPR, BIAcore 2000; shFcγRIIIa captured by anti-His antibody on CM5 chip, antibody in flow (0.625 to 20 µg/ml)
[2] = target: soluble hFcγRIIIa(V) (human) (UniProt P08637); assay: SPR, BIAcore 2000; end of the range tied to this antibody by Table 3 (0.48/0.28)
[3] = target: soluble hFcγRIIIa(F) (human) (UniProt P08637); assay: SPR, BIAcore 2000; shFcγRIIIa captured by anti-His antibody on CM5 chip; KA from the equilibrium value of the binding

- Ka [1]: 4.8e+06 M⁻¹
- koff [1]: 0.0071 s⁻¹
- kon [1]: 34000 M⁻¹ s⁻¹
- fold higher KA for shFcγRIIIa(V) than for shFcγRIIIa(F) [2]: 2 to 3 times
- Ka [3]: 2.8e+06 M⁻¹
Substance: Rituxan™ (antibody)
